Assay results taken from patent US20180244783A1, “COMBINATION THERAPY FOR TREATMENT OF DISEASE” (OncoMed Pharmaceuticals, Inc., priority 2015, published 2018).

B1: 18R5: anti-FZD IgG2 antibody binding FZD1, FZD2, FZD5, FZD7, FZD8; heavy chain SEQ ID NO:11, light chain SEQ ID NO:12 (antibody)
heavy: EVQLVESGGGLVQPGGSLRLSCAASGFTFSHYTLSWVRQAPGKGLEWVSVISGDGSYTYYADSVKGRFTISSDNSKNTLYLQMNSLRAEDTAVYYCARNFIKYVFANWGQGTLVTVSSASTKGPSVFPLAPCSRSTSESTAALGCLVKDYFPEPVTVSWNSGALTSGVHTFPAVLQSSGLYSLSSVVTVPSSNFGTQTYTCNVDHKPSNTKVDKTVERKCCVECPPCPAPPVAGPSVFLFPPKPKDTLMISRTPEVTCVVVDVSHEDPEVQFNWYVDGVEVHNAKTKPREEQFNSTFRVVSVLTVVHQDWLNGKEYKCKVSNKGLPAPIEKTISKTKGQPREPQVYTLPPSREEMTKNQVSLTCLVKGFYPSDIAVEWESNGQPENNYKTTPPMLDSDGSFFLYSKLTVDKSRWQQGNVFSCSVMHEALHNHYTQKSLSLSPGK
light: DIELTQPPSVSVAPGQTARISCSGDNIGSFYVHWYQQKPGQAPVLVIYDKSNRPSGIPERFSGSNSGNTATLTISGTQAEDEADYYCQSYANTLSLVFGGGTKLTVLGQPKAAPSVTLFPPSSEELQANKATLVCLISDFYPGAVTVAWKADSSPVKAGVETTTPSKQSNNKYAASSYLSLTPEQWKSHRSYSCQVTHEGSTVEKTVAPTECS
modifications: Heavy chain amino acid sequence without predicted signal sequence; Light chain amino acid sequence without predicted signal sequence

Tests used:
[1] = tested on: B16F10 melanoma; test: B16F10 melanoma tumor growth in mice; type: in vivo; settings: B16F10 melanoma in C57b16/J mice; vs control antibody (Hamster IgG); 18R5 45 mg/kg Q2W, 54F28 50 mg/kg Q2W, anti-CTLA-4 (4F10-11) 10 mg/kg 3QW; n=10
Protocol: B16F10 melanoma cells were implanted into the rear flanks of C57b16/J mice. When tumors reached a mean tumor volume of ˜100 mm^3 as measured by electronic caliper, mice were grouped and treated with a control antibody (Hamster IgG, 10 mg/kg, 3QW), 18R5 (45 mg/kg, Q2W), anti-CTLA-4 (4F10-11, 10 mg/kg, 3QW), 54F28 (50 mg/kg, Q2W), or a combination of 18R5+ anti-CTLA-4 or 54F28+ anti-CTLA-4. […] Data shown represents the mean ±SEM (n=10).

[2] = tested on: B16F10 target cells; test: T cell cytotoxicity, calcein release from B16F10 target cells; type: in vivo, mouse; settings: splenocytes of treated B16F10 tumor-bearing mice, cultured 6 days with mgp100 peptide; effector:target 25:1; vs Hamster IgG; FIG. 2B
Protocol: To measure changes in T cell toxicity, the mouse melanoma cell line B16F10 was cultured in DMEM culture medium supplemented with 10% (v/v) fetal bovine serum (FBS), 2 mM L-glutamine, and 100 U/mL penicillin at 37° C. in a humidified atmosphere of 5% CO2. Total splenocytes from were cultured for 6 days in RPMI 1640 medium supplemented with 10% FBS, 2 mM L-glutamine, 100 U/mL penicillin, and 1 μg/mL mgp100 peptide (Anaspec). B16F10 target cells were labeled with 10 μM calcein AM (Life Technologies) for 1 hour at 37° C. and then combined with the splenocytes at an effector:target ratio of 25:1. Following a four-hour incubation at 37° C., cell-free supernatants were harvested and calcein release was quantified on a fluorometer at an excitation of 485 nm and an emission of 535 nm. The percentage of specific cell lysis was determined as: % lysis=100×(ER-SR)/(MR-SR), where ER, SR, and MR represent experimental, spontaneous, and maximum calcein release, respectively. Spontaneous release is the fluorescence emitted by target cells incubated in media alone (i.e., in the absence of effector cells), while maximum release is determined by lysing target cells with an equal volume of 10% SDS. For all groups, p<0.05 vs. Hamster IgG.

[3] = tested on: splenocytes; test: ELISpot cytokine secretion assay of splenocytes (hgp100 peptide); type: in vivo, mice; settings: splenocytes with 1 μg/ml hgp100 peptide, 18R5 added to anti-CTLA-4 + anti-PD-L1 therapy
Protocol: Using the ELISpot cytokine secretion assay, secretion of IFN-gamma and IL-2 was measured following 18R5 treatment. In these assays, splenocytes were harvested from a minimum of four mice per group, filtered, and the red blood cells lysed and re-suspended in RPMI+10% FBS+penn/strep at a concentration of 10^6 cells/ml in the presence of 1 μg/ml hgp100 peptide. Cells were plated on pre-coated ELISpot plates, incubated overnight and processed according to manufacturer's instructions (MabTech, Cincinnati, Ohio). Developed plates were read on a BioSys BioReader 6000-F b. The results from this assay are shown in FIG. 4A (IFN-gamma) and FIG. 4B (IL-2). Values shown are total optical density. As shown in these figures, IFN-gamma and IL-2 were increased by addition of 18R5 therapy.

[4] = tested on: B16F1 melanoma cells; test: B16F1 melanoma tumor growth with GVAX, anti-CTLA-4 and anti-PD-L1; type: in vivo; settings: C57BL6J mice, murine chimera 18R5 added to anti-CTLA-4 (9D9) + anti-PD-L1 (10F.9G2), compared to these antibodies without 18R5, FIGS. 3A-3D
Protocol: The effect of the anti-Fzd antibody, OMP-18R5, on melanoma cell line tumor growth was tested animals receiving the combination of anti-CTLA-4 and anti-PD-L1 antibodies. In these experiments, ten thousand B16F1 melanoma cells were injected subcutaneously into C57BL6J mice. On days 4, 7, and 10 post-implantation, “GVAX” tumor vaccine was administered by the injection of 2 million mitomycin C-treated cells of a B16F1 subclone stably transfected with a plasmid encoding m-GM-CSF (with GM-CSF expression confirmed by ELISA), as previously described by Curran and Allison, Cancer Res 69:7747, 2009. Anti-CTLA-4 clone 9D9 (BioXCell; West Lebanon, N.H.) was dosed on days 5, 8, and 12. Anti-PD-L1 clone 10F.9G2 (BioXCell) was dosed on days 5, 8, 12, 14, 19, 22, and 26, and either 1B7.11 isotype or murine chimera 18R5 were administered days 5, 12, 19, and 26 following parental B16F1 cell implantation.

[5] = tested on: B16F1 tumors; test: T-cell tumor infiltration by flow cytometry (FACS); type: in vivo, mice; settings: compared to anti-CTLA-4 + anti-PD-L1 without 18R5 (or control antibodies)
Protocol: The change is T-cell tumor infiltration was also measured. Here, B16F1 tumors were isolated from control antibody, anti-CTLA-4 and anti-mouse PD-L1 combination; and anti-mouse Fzd7 (18R5)+anti-mouse anti-CTLA-4+ anti-mouse PD-L1 combination antibody-treated mice. Single cell suspensions were acquired from 4-6 independently treated tumors and were stained for tumor infiltrating immune cells using fluorescently-labeled anti-CD45, anti-CD4, and anti-CD8 antibodies. Flow cytometry analysis (FACS) was performed and the relative percentage populations of CD45+/CD4+ and CD45+/CD8+ T cells are shown.

| Molecule | anti-tumor growth vs control [1] | T cell cytotoxicity (specific cell lysis) [2] | IFN-gamma secretion (ELISpot, total optical density) ([3]; FIG. 4A) | IL-2 secretion (ELISpot, total optical density) ([3]; FIG. 4B) | tumor growth [4] | CD4+ T cell tumor infiltration (CD45+/CD4+) ([5]; FIG. 6A) | CD8+ T cell tumor infiltration (CD45+/CD8+) ([5]; FIG. 6B) |
| --- | --- | --- | --- | --- | --- | --- | --- |
| 54F28: FZD8-Fc soluble receptor, SEQ ID NO:41 (SEQ ID NO:45 with signal sequence) | significant anti-tumor growth | increased |  |  |  |  |  |
| B1 |  | increased | increased | increased | decreased | increased | increased |
